# Measured values published in publication PMC13044988, “Vaspin identified as a DNA‐binding serpin with functional consequences for protease inhibition”.
# Substitutions are numbered along the chain they refer to.
# T1: NHB vaspin (nonheparin-binding) (Homo sapiens, UniProt Q8IW75 21-414, K131A;K188A;R211A;K359A;R363A)
# T1 sequence: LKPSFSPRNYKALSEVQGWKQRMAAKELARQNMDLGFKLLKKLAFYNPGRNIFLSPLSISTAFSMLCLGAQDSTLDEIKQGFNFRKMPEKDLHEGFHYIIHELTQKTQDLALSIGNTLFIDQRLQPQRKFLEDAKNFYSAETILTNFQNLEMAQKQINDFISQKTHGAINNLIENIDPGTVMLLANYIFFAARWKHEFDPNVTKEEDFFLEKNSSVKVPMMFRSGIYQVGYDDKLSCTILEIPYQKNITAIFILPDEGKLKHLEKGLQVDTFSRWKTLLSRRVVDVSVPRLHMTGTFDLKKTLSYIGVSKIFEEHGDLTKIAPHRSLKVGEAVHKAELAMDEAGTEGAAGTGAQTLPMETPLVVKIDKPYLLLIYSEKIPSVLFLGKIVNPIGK
# T2: vaspin WT (Homo sapiens, UniProt Q8IW75 21-414)
# T2 sequence: T1 sequence with A111K, A168K, A191R, A339K, A343R
# T3: antichymotrypsin (ACT) (Homo sapiens, UniProt P01011 24-423)
# T3 sequence: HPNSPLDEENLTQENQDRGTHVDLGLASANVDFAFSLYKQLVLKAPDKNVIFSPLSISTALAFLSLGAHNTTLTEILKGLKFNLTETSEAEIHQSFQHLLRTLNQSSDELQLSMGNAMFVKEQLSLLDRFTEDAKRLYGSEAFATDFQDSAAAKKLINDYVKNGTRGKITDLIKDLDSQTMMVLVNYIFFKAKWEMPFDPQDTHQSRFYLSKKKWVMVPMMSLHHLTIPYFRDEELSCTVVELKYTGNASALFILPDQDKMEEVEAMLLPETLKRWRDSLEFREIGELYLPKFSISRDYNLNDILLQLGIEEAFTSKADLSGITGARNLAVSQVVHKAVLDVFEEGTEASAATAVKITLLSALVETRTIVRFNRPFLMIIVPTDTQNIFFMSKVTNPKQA
# B1: 20 base ssDNA (ssDNA)
# DNA: GACGGATCGGGAGATCTCCC
# B2: 120 base ssDNA (ssDNA)
# DNA: GACGGATCGGGAGATCTCCCGATCCCCTATGGTGCACTCTCAGTACAATCTGCTCTGATGCCGCATAGTTAAGCCAGTATCTGCTCCCTGCTTGTGTGTTGGAGGTCGCTGAGTAGTGCG
# B3: 60 base ssDNA (ssDNA)
# DNA: GACGGATCGGGAGATCTCCCGATCCCCTATGGTGCACTCTCAGTACAATCTGCTCTGATG
# Legend:
# [1] = molecular target: T1, NHB vaspin (nonheparin-binding); assay: DRaCALA; Buffer 2; DRaCALA: Buffer 2, 20 mM Tris/HCl pH 7.8, 15 mM NaCl, 50 nM labeled ssDNA, 10 min at 20 C; screening also in Buffer 1 (20 mM Tris/HCl pH 7.8, 150 mM NaCl) and Buffer 3 (20 mM Tris/HCl pH 7.8, 15 mM KCl); settings: protein: recombinant; label: 5'-32P
# KLK7 (kallikrein 7) = KLK7 (kallikrein 7) (Homo sapiens, UniProt P49862 30-253); assay: as above; settings: protein: recombinant; label: 5'-32P
# vaspin WT = molecular target: T2, vaspin WT; assay: as above; settings: protein: recombinant; label: 5'-32P
# antichymotrypsin (ACT) = molecular target: T3, antichymotrypsin (ACT); assay: DRaCALA; Buffer 1 (150 mM NaCl), 1 uM protein; DRaCALA: Buffer 2, 20 mM Tris/HCl pH 7.8, 15 mM NaCl, 50 nM labeled ssDNA, 10 min at 20 C; screening also in Buffer 1 (20 mM Tris/HCl pH 7.8, 150 mM NaCl) and Buffer 3 (20 mM Tris/HCl pH 7.8, 15 mM KCl); settings: label: 5'-32P
# Sequence of KLK7 (kallikrein 7) (P49862 30-253): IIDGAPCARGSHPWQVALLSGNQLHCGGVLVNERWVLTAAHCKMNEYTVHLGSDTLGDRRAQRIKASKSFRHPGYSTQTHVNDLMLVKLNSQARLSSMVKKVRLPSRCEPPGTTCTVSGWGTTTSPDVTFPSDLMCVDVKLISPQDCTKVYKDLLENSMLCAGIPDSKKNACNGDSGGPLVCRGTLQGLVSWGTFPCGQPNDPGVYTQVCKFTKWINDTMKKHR
Binder,Kd [1] [nM],Kd (KLK7 (kallikrein 7)) [nM],Kd (vaspin WT) [nM],binding result (antichymotrypsin (ACT))
B1,269,2070,59,
B2,178,1070,128,
B3,188,815,117,no binding
